Experiment: soluble on expression in E. coli; label from the status in PepcDB or PDB records

Sequence | soluble on expression in E. coli
MSSDPWGRVDETGTVYVRTADGEQVVGSWQAGSPDEALAYFERKYEGLVVEIGLLEKRVKTTDLSAKDAQTAIDHIREQVDAHHAVGDLDVLRKRLDKLVETVAARREERKAQRAKQSDEARHAKESLVVEAEELAQSDQWRAAGERLRSLVDTWKGLPRLDRKSDDELWHRFSHARSAFSKRRKAHFASLDAQREDARKAKEKLVAEAEALSGSTDWGPTAARYRELMGDWKAAGRAQREHEDDLWNRFRGAQDVFFAARSSVFAERDAEQSENLKLKEELAEEAEKLLPISDLKAARAAFRSLNERWEAIGHVPRDARPKVEGRMHAVERALQESEEVEWRRTNPEARARAEGLTGQLQAAVDKLQGQIEAARSAGNNAKADKLQKELDGRQALLDQALKGLHEFGG | not soluble
KRTWWLWRQTISSSRGNKVVFEVNADSVRYKSGKIDRSLAWSEIDQLEQTDLGFILHLGKQRQYISKSCLNEEVIAFMVEQHAGSKAS | not soluble
MGSDKIHHHHHHMFLRFFSELRQAKVPVSLREYLLLMEALDKDVIDRSVEDFYFLSRASLVKDEKNLDKFDRVFSHVFKGLETVNDGLAADIPEEWLKALTEKFLTDEEKAQIEALGGFEKLMETLQERLREQKKRHEGGNKMIGSGGTSPFGNNGYNPEGVRIGQDKGRHGRAVKVWDKREYKNLDDSVELGTRNIKVALRRLRKFARTGAAEELDLNGTIKGTAEKGYLDIQLRPERRNAIKVLLFFDIGGSMDSHIKLCEELFSAARTEFKNLEFYYFHNCLYETVWKDNKRRQTEKIPTFDVLHKFPADYKVIFVGDATMSPYEITYPGGSVEHWNEEPGAIWMQRVTEIYQSCIWLNPTPERHWDYTQSIGVMRQIMADRMFPLTIEGLDKAMRELVRG | not soluble
MEKELVFAGFGGQGVLTLGLIVAESALELGKQVTWMPAYGPTMRGGKAYSVVKFSDESIGGPDMEEIDVLVAMNKPSLDYINLVKEGGTVVINTSAIDENVTLREDISVVKINCQELAQKVNNPK | not soluble
MRILILGMGGTIASVKGERGYESALSVSKILKLAGISSEAKIEARDLMNVDSTLIQPSDWERLAKEIEKEVWEYDGIVITHGTDTMAYSASMLSFMLRNPPIPIVLTGSMLPITEKNSDAPFNLRTALEFVKLGIRGIYIAFNGKVMLGVRASKIRSMGFDAFESINYPNVAEIKDDKLRILHIPDFYGDEFFSDIKYEPKVLVIKLIPGLSGDIVREALRLGYKGIILEGYGVGGIPYRGTDLFEVVSSISKRIPVVLTTQAIYDGVDLQRYKVGRIALEAGVIPAGDMTKEATITKLMWILGHTKNIEEVKQLMGKNITGELTRVS | soluble
MAEINIYQNPGQSLANIYKGFARQCNPGFVFPEAQTIEAWDIPLRLHPEFIPGGDISKADQQYSTLLAQEIANGVTIGFRMVNEKERVCNVEILPLLTSMAQNLDRIKARFGSGYLDRFKGSPNVYPTDVGFSTDASGGISQESGLLVSYGVNLRTLTPGTWQAMTLPEDIKALVGPGVGLRLDAPNFSDVFNTIKSGLRYTTAVTLLLAYFAAI | soluble
MGSDKIHHHHHHMYQVIANFSFQNFEHDPVILINQIINQWRYNGQIIGREFSVTYHTQPSAHFQVRLATPEQISLMPEWNNDQVTEALSQAAEKGVEFESFEIIGRDYQAEQTSENSNARFYILYTTHLDSCSPLYNGDDFCPVPLYRLLQKDQSLAQALIKWQENWQACDQLQMNGTILEQPALNEISEIDSNLAQLGIKLCREVERVTQVPTYYYLYRLGTDEAVEYQRKCSSCGAEWRLTEPLHQIFHFKCDKCRLISNLSWQLQK | not soluble
MAHHHHHHMAMKDAVWLGKPVDVTGEDLCSVYTSRIGGTATLFRETADYSVFRCPKCNSMNTVSLLAQIYAPLDVYDRLLYVLTCSTCSTEQSTFCFALRSQNFNPSYKNVSQTNDKGGCEDKRLLFEESADWGDGMDKGWDYDYKSVKSNTATEQRGNRSTVNEAIADDICSTEVPSSLAPPGSQPPIRGMRFPCFTLEVFEEPPKVKPKSAPFNIQLHEAQGKYGEDVVETTVLDEADEPLHEKLLRKYVERIGRVPSQCVRWGPSREPLQLSVISIVAPRCPYCGKKRRYELQLTSPIIYFLTKSNEKKHPLHFGNVLVFTCSGNCNTEAYALEYCFVEGEI | not soluble
MAHHHHHHMNEKGNFMKKAYKNNNIQLSENQINQRIKNVNLTKRLICYERYLKAIPKIERRNDLKNSWHPETPRYNKQISLSQWNKELKKWRKQIHAWGNISEEDHRYICKLSYTDKYKYLCNLKMPELSNLEIKNMKKENEEISHDILKHILLIQNKHNNPFDENDKIMYQPIFFLPENFSGTVVHNEFVIIKEQNMEKYLTLLKDKYKDKYNYCFKKYYELYLLNKDSDNKNVENSKNTIPKNGKNHIVIYLGKETKPLNYKNKEAQYEQKEKMEAYNFLCGSTKKYENHNKMNKRKKF | not soluble
MLAAYRGRVMTRIAVELSLLTFVRSSELRFARWDEFDFDKSLWRIPAKREEIKGVRYSYRGMKMKEEHIVPLSRQAMILLEQLKQISGDKELLFPGDHDATKVMSENTVNSALRAMGYDTKTEVCGHGFRTMARGALGESGLWSEDAIERQLSHSERNSVRAAYIHTSEHLDERRLMVQWWADYLDANKIKPLEHHHHHH | not soluble
SLPIFEARVKVGISSSWVTSRKVSWRDAIAQIESDRIVVKYLKMGEVVGEDSFPFSALIDLGVRIPDELKLNPEKDHFGIKFYIPGRGELLVIFTIEENLLIYDEKKFSEFVHKVFEVLINGKTVMLQLARIIGGAVNMESKWEEGWLRVIKVKSARTQKTERSIVVIIKDKRPVSIFSDLEDIEIEEVDMNGKRVRAWKIRHFHIDQSVTSYLYIPDKQTQLYVLRYLLKYNPAIMEFIMKVSDDFPTLKSEFQEIMEKEIKELEALDEMEKQILVALYSGINPLELHQFLGVSEKEIEEIYDRMIDKGLLKIVMIRKIVDLTNEGRKIVNKLLKYGLVSM | soluble
MGSDKIHHHHHHMRVYFDNNATTRVDDRVLEEMIVFYREKYGNPNSAHGMGIEANLHMEKAREKVAKVLGVSPSEIFFTSCATESINWILKTVAETFEKRKRTIITTPIEHKAVLETMKYLSMKGFKVKYVPVDSRGVVKLEELEKLVDEDTFLVSIMAANNEVGTIQPVEDVTRIVKKKNKETLVHVDAVQTIGKIPFSLEKLEVDYASFSAHKFHGPKGVGITYIRKGVPIRPLIHGGGQERGLRSGTQNVPGIVGAARAMEIAVEELSEAAKHMEKLRSKLVSGLMNLGAHIITPLEISLPNTLSVSFPNIRGSTLQNLLSGYGIYVSTSSACTSKDERLSHVLDAMGVDRRIAQGAIRISLCKYNTEEEVDYFLKKIEEILSFLDLTGNNRR | not soluble
MMSAYNKLVRDRVPEKILMSGKTYTAQKLTGQAYIQALAKIGTEEIREFASMKEREHALDSLADALEVIISLARAEGASIEDVERLRKQKEIERGGFERGIYLLDVSEE | not soluble
MSVQSITESNQPPVICLMGPTASGKTALAMALKDALPCDIVSVDSALIYRDMDIGTAKPTKSELVQYPHRLIDLRDASESYSAADFCRDALVEIAEIRSNGRIPLLVGGTMMYFKSLIEGISPLPTANPEIRQAIEAEALSKGWQAMHDQLAEIDPVSAERIHPNDPQRITRALEVYRLTSNTLTQLTQIKGAKLAGDVLQLAITPRERSTLHERIALRYQQMIDLGFEQEVIKLKSRDDLHQDLPSIRCVGYRQMWQHLEGEFDHDEMIFRGVCATRQLAKRQLTWLRNWPDLHWLTTDDKTNLAQVLSLLEAKH | not soluble
MRERTEARRRRIEEVLRRRQPDLTVLLENVHKPHNLSAILRTCDAVGVLEAHAVNPTGGVPTFNETSGGSHKWVYLRVHPDLHEAFRFLKERGFTVYATALREDARDFREVDYTKPTAVLFGAEKWGVSEEALALADGAIKIPMLGMVQSLNVSVAAAVILFEAQRQRLKAGLYDRPRLDPELYQKVLADWLRK | soluble
MSLAIIPGVEQKPMSSNLESRIDQGTGREPADMVLKGGRFFDLVTGELVASDIAICGDTVVGTCGDYKGRHEIDISGKIVVPGFIDTHLHIESSLVTPHEFDRCVLPYGVTTAICDPHEIANVLGAEGLQFFLDSAMETIMDIRVQLSSCVPATHLETSGADLPIEKLLPFRNHPKVIGLAEFMNFPGVIHKDPVCMAKLEAFQGQHIDGHAPLLSGAALNGYLAAGIRTEHECTSAAEALEKIRKGMHILVREGSVSKDLHALMPIITERLSPYLALCTDDRNPLDIAEQGHLDYMIRTAIASGVEPLAIYRAASISAAKAFGLRDRGLVAPGWRADLVVIDTLQNCKASMVLSGGRLVDDALFATRKPVAPVGLDSVKARPVLASHFGVPVTEGETPVMGVLPGKIITEHRRYKLPTDGNQTTVDLENDIIKVAVIERHGKNGNHANGFVQGFGLKKGAIASTVGHDSHNICVVGVSEDDMALAANRLGDIKGGFVVVEDGRVTGEIALPVAGLMSLEPYETVRDTLHTLRKAAYALGTTLEEPFLQVAFLPLPVIPHLKISDMGMVDVDRFALIEGHHHHHH | soluble
MSLDHTYVFAVGGLDEVGKNSYAIEHNEETIMVDYGIKFASSDLLGINGIVANTSYFVENNRPIDALLLTHGHEDHIGGIPYLLQTTEVKKIYAPLLATELIKRRLSEFRDIKYNPEIIPFGDDSKVSTKYFEVDFFRVCHSIPDSFGMCIKTPNGRIVSAGDYRYDFGKDTDDTNIHKLVEMSNRGIDIFLSESTNSDQPGFSPSEDNIINNIETLIKNSKGRVFVATFASNLGRIEKIIERAIKSGRRVCIMGRSMEANIKTSKKLGYLKISESDFLTTKELNECKDREILVVLTGSQGEEMAALNQMALGKHPRLSLKPSDSIIMSSNPIPGNFKSVELLINRLYKQGVNMYTNSPNFRIHSSGHATIQELQMMFKILKPKYLIPIHGESKMLSAMKRNANSIGINPENVFVLTNGLKVELKDHNLKLTNQRIDACPIYIDKKVASKSTTDLINKRKLLSEEGIFNIIVLIDHKNKKVVKNPMLSTRGCFYAKDSSSLITKISFSVKDEIESLLNKEAEASKEKIKQAVANVVKFYVWKNKKKNPIVTTTVFDIEGHHHHHH | not soluble
MCSISRGKLSTVLKSTSSCIFENLAYEEHIFRTHNVAQNGEILLMWSNRPAVVIGRHQNPWIEVNIPYANKNNIQIVRRHSGGGTVYHDLGNLNISLLTTHAQHCRPKNLKFISDALNQQFSVKIVPNKRDDMELHPGERKCSGTAARIARGQAYHHLTLLVGADLQVLSKSLKSPWRDKIESNATRSVRAPAVGFLKQDDANANVEQSKLAIVEAYRKLFEESHIKTVNVAEEVKKNAEISKIFDELKAWKWIYGKSPKFQYSRENKSIIEMMRTAHKDREPWRDIRRMSKWQGVRVCDEPSPWYMSIPTPFSQFHNVLPEEQEEMVFTELKLFLVGNQTENIRIDEYDKHDLPISILANISFDPFIRSELERFHDILVTVATIKICCYAITHDSVTFSSISSAVASTIEKKVNGFITKICTKLSGSTEANQQMNQLLREMHTIHESLNFYNGIVKSIYLDQLIGGQVLSLLDSKRRHVFSGNVVQNLDDVFQAGWKVFARSIGRLVCKFEADHMDYEFVIWSTKQMTDSQCKTLVPSNPSRQIKSSRYVVIESLCPDFFKKYLDILVRCAEFGDSAKSDSSLRRSTSKKINESESVESVMEDVRNVDWSNLDVATTVRMLVQFSRKESACLLREITSATNVDQAIRDIHDLLIKGSCAHDVMLFGLKADILQKPIDEVGNIRMKKLTNDVLGAAAEKHHPFWKYFSFVIDKQNVFEMLGQRTSLGGNADNLRDNVTPMLFECISVKMDCPIEIEPIISMKAVFILTPVFRIWIQLHVASYTIANYRDSIRGQMPSRSLGDIAMKKHLMHALDAEISSIKQKWVGYVDLLINLYYERIQKAASLDEYTECQDILASDVTNMMGISELSQLENIKDILNIIWNYDNADSNLADLIADFEEVQSRARMDVVVA | not soluble
